From patent US20210032294A1, “MODIFIED PlySs2 LYSINS AND USES THEREOF” (CONTRAFECT CORPORATION, priority 2018, published 2021)
“Also recorded” adds a separate entry of the source.

Columns and labels:
[1] = system: MRSA isolates; assay: MIC in CAMHB-HSD against MRSA isolates; assay type: cell-based, Staphylococcus aureus; settings: 51 MRSA isolates
Protocol: In vitro activity of the modified lysin polypeptide pp296 was assessed against a range of 51 MSSA and 51 MRSA isolates in cation-adjusted Mueller Hinton broth supplemented with 25% horse serum and 0.5 mM DTT (CAMHB-HSD) and compared to WT GMP grade PlySs2 (CF-301). CF-301 and pp296 were each diluted into CAMHB-HSD. For each lysin, the dilution series is set up such that, after a two-fold dilution of each well of the plate, the final concentrations contained: 64, 32, 16, 8, 4, 2, 1, 0.5, 0.25, and 0.125 μg/mL. Each lysin was tested in duplicate against each strain. Preparations were incubated overnight. Growth was visualized as a growth button approximately 2 mm in diameter. The highest dilution that yielded ≥80% growth inhibition was called the minimum inhibitory concentration (MIC). The activity of pp296 was very similar, within one 2-fold dilution, to that of CF-301, as shown below in Table 7.

[2] = system: S. aureus isolate CFS-860; assay: Mouse neutropenic thigh infection (MNTI) model; assay type: in vivo, Staphylococcus aureus
Protocol: The efficacy of four modified lysin polypeptides was compared to wild-type PlySs2 in a dose response (0-60 mg/kg) assay using a mouse neutropenic thigh infection (MNTI) model.
Bacterial inoculum was generated by allowing bacterial cells to grow to exponential phase in MHB until they reached an optical density (OD) of about 0.5 at 600 nm. The bacterial cells were thoroughly washed, resuspended in 0.9% sodium chloride USP, and diluted to an equivalent of 3.9×10^8 colony forming units (CFU)/mL. Cells were further diluted as described below in 0.9% sodium chloride USP and maintained on wet ice.
Neutropenia was induced in female BALB/cByJ mice (5-7 weeks, Jackson Laboratories) by intraperitoneal (ip) administration of 150 mg/kg and 100 mg/kg of cyclophosphamide 4 and 1 days prior to inoculation of bacteria, respectively. Bacterial inoculum (S. aureus isolate CFS-860, 100 μl of 10^7 CFU/ml solution) was injected intramuscularly (IM) into both posterior thighs of each mouse. […] At 2 hours post-inoculation (Early Control) and 24 hours post-treatment initiation, animals were euthanized (CO2 asphyxiation), and the thighs were aseptically removed. Each thigh was weighed, placed into 4 ml sterile saline and homogenized in 7 ml lysing tubes using a Precellys24 high-throughput tissue homogenizer (Bertin Corp, Rockville, Md.). Dilutions of homogenate were plated on tryptic soy blood agar plates (Becton Dickinson) and incubated at 37° C. overnight in a CO2 incubator. Bacterial burden was enumerated and expressed as log 10 CFU/g of thigh weight and compared to control animals harvested at 2 hours post infection (Early Control) and animals treated with vehicle (Late Control).
The data representing mouse thigh bacterial burden are depicted in FIG. 2. The upper dot on the y-axis is vehicle alone, and the lower dot on the y-axis is the Early Control. pp1149 is in fact also a wild-type lysin over-expressed and purified in the laboratory along with the other modified lysin polypeptides and used as an additional positive control.

[3] = Single 2-hour intravenous infusion toxicity study in rats; assay type: in vivo, Sprague Dawley rats
Text: The objectives of this study were to evaluate the potential toxicity and toxicokinetic profile of pp296 when administered as a single 2-hour intravenous infusion to Sprague Dawley rats, as well as to evaluate the recovery, persistence, or progression of any effects following a minimum of a 3-day recovery period.
The following Tables 9 and 10 present the study group arrangement. There were 5 male and 5 female rats per group in Phase A.
For the main (Phase A) and toxicokinetic (Phase B) phases, animals received a single 2-hour intravenous infusion. Phase A animals received a single 2-hour intravenous infusion at escalating doses until the maximum tolerated dose (MTD) was determined up to a high dose of 100 mg/kg. A minimum of 3 days of observation was allowed between each pp296 dose. Animals assigned to Groups 2 through 5 were necropsied approximately 72 hours following the end of dose administration. ^aThe vehicle was 20 mM L-histidine, 5% D-sorbitol (w/v), pH 7.0 (±0.1).
The following parameters and endpoints were evaluated in this study: clinical signs, body weight, body weight gain, food consumption, clinical pathology parameters (hematology, coagulation, serum chemistry, and urinalysis), gross necropsy findings, and histopathologic examinations.

[4] = system: MRSA strain MW2; assay: Serial passage resistance assay; assay type: cell-based, Staphylococcus aureus
Protocol: An analysis of bacterial resistance was performed using MRSA strain MW2 over 18 days of serial passage in the presence of a pp296 dilution series and an antibiotic dilution series in presence and absence of sub-MIC amounts of pp296. Briefly, the broth microdilution MIC format was used in which 2-fold dilutions ranges of pp296 alone or antibiotic in the presence and absence of a fixed sub-MIC amount of pp296 was cultured with bacteria (5×10^5 CFU/ml starting concentration) in MHB for 20 hours at 37° C. The well with the highest concentration of the modified lysin polypeptide in which bacterial growth was seen was then used as the inoculum for the next day's passage, and the process was repeated over a […]. The MIC at each daily time-point was recorded, and resistance was measured as a step-wise increase in MIC. […] The results are depicted graphically in FIGS. 3A-3C.

B1: pp296: Modified PlySs2 lysin, SEQ ID NO: 6: L92W, V104S, V128T, Y137S, Y164K, N184D, S198Q (protein)
chain: MTTVNEALNNVRAQVGSGVSVGNGECYALASWYERMISPDATVGLGAGVGWVSGAIGDTISAKNIGSSYNWQANGWTVSTSGPFKAGQIVTWGATPGNPYGHVSIVEAVDGDRLTILEQNYGGKRYPTRNYYSAASSRQQVVHYITPPGTVAQSAPNLAGSRSKRETGTMTVTVDALNVRRAPDTSGEIVAVYKRGEQFDYDTAIIDVNGYAWVSYIGGSGKRNYVATGATKDGKRFGNAWGTFK
MIC50 [1]: 1 µg/mL | MIC90 [1]: 1 µg/mL | MIC Range [1]: 0.25 to 2 µg/mL | Performance in MNTI at lower doses ([2]; 0.5 mg/kg): performed comparably to wild type | Bactericidal efficacy (thigh bacterial burden) versus wild type ([2]; neutropenic BALB/cByJ mice, intravenous, dose response, 24 hours): activity comparable to wild-type PlySs2 lysin | Bactericidal efficacy at the lowest dose used ([2]; neutropenic mice, intravenous, 5 mg/kg): comparable to that of wild-type PlySs2 lysin | No-observed-adverse-effect level (NOAEL) ([3]; single 2-hour intravenous infusion): > 100 mg/kg | Tolerability / adverse findings ([3]; single intravenous infusion, 5, 25, 50, and 100 mg/kg): well tolerated with no adverse findings at all doses; also recorded: well-tolerated with no adverse findings at all doses | Increase in MIC of DAP or VAN / appearance of antibiotic resistance ([4]; antibiotic plus fixed sub-MIC amount of lysin): no or very little increase; also recorded: suppressed the appearance of daptomycin and vancomycin resistance | Resistance to the lysin (increase in MIC on serial passage) ([4]; lysin alone, three replicate lineages, 21-26 day period): no or very little increase; also recorded: no resistance to pp296 was observed | Amount needed to suppress DAP resistance ([4]; with daptomycin, 1/16th the MIC for pp296 alone): 0.125 µg/mL | Amount needed to suppress development of VAN resistance ([4]; with vancomycin, 1/8th the MIC for pp296 alone): 0.25 µg/mL
